Data published in patent US20040106198.

What was measured:
[1] = target: oxidized bovine insulin B chain, P01317
[2] = target: T1, N-Suc-VGR-pNA
T1 chain: VGR

[3] = target: T2, N-Suc-YVAD-pNA
T2 chain: YVAD

[4] = target: T3, N-Suc-AAA-pNA
T3 chain: AAA

[5] = target: T4, N-Suc-AAPV-pNA
T4 chain: AAPV

[6] = target: T5, N-Suc-AAVA-pNA
T5 chain: AAVA

[7] = target: T6, N-Suc-GGG-pNA
T6 chain: GGG

[8] = target: T7, N-Suc-GGL-pNA
T7 chain: GGL

[9] = target: T8, N-Suc-GPK-pNA
T8 chain: GPK

[10] = target: human growth hormone, P01241
[11] = target: T9, N-Suc-YLV-pNA
T9 chain: YLV

[12] = target: T10, N-Suc-IEGR-pNA
T10 chain: IEGR

[13] = target: T11, N-Suc-AAPD-pNA
T11 chain: AAPD

[14] = target: T12, N-Suc-AAPL-pNA
T12 chain: AAPL

[15] = target: T13, N-Suc-AAV-pNA
T13 chain: AAV

[16] = target: T14, N-Suc-AAPA-pNA
T14 chain: AAPA

[17] = target: T15, N-Suc-GGF-pNA
T15 chain: GGF

[18] = target: T16, N-Suc-FVR-pNA
T16 chain: FVR

[19] = target: T17, N-Suc-AAPI-pNA
T17 chain: AAPI

[20] = target: T18, N-Suc-AAPM-pNA
T18 chain: AAPM

[21] = target: T19, N-Suc-PFR-pNA
T19 chain: PFR

[22] = target: T20, N-Suc-AAPF-pNA
T20 chain: AAPF

[23] = target: T21, N-Suc-GFG-pNA
T21 chain: GFG

Sequence of human growth hormone, P01241 (P01241 27-217): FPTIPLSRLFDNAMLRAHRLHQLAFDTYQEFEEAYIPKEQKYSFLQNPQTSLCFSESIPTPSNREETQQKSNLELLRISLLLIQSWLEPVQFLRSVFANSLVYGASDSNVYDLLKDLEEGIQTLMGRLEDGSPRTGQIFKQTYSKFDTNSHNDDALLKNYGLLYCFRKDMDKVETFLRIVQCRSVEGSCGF
Sequence of oxidized bovine insulin B chain, P01317 (P01317 25-54): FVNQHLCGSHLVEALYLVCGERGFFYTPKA

B1: Nicotianalisin (Nicotiana benthamiana subtilisin-like serine protease) (protein)
chain: ANCITMYFLLLTILLLTLNPLTMAESETYIIHMDLSAMPKAFSSHQNWYLTTLASVSGSSSLGTESNRNSFSSSKLVYAYTNAIHGFSATLSPSELQVIKNSPGYLSSTKDMTVKIDTTHTSQFLGLNSDSGAWPKSDYGKDVIVGLVDTGIWPESKSYNDNGMTEVPSRWKGECESGTQFNSSLCNKKLIGARYFNKGLIANNPNITISMNSARDTDGHGTHTSSTAAGSHVESASYFGYARGSATGMAPKAHVAMYKALWEEGTMLSDILAAIDQAIEDGVDIISLSLGIDDLALYEDPVAIATFAAMEKDIFVSTSAGNEGPDDQALHNGTPWVLTVAAGTVDREFIGTLSLGNGVSVTGLSLYPGNSSSSESSIVFLKTCLEEKELEKNAHKFAVCYDTNGSVSDQLYNVKNTKVAGGIFITNYTDLEFYLQSEFPAVFLNFEDGDKVLEYIKNSHSPKARLEFQVTHLGAKPAPKVASYSSRGPSESCPFILKPDLMAPGALILASWPQKSPATQIRSGELFSNFNIISGTSMSCPHAAGVAALLKGAHPKWSPAAIRSAMMTTADTMDNMQMPIRDIGRNNNAASPLAMGAGRINPNKALDPGLIYDITSQDYINLLCALDFTSQQIKAITRSSAYSCSNSSLDLNYPSFIGYFNYNSSESDPKRIQEFQRTVTNVGEGMSVYTAKLTSMGDYKASVAPDKLVFKEKYEKQSYKLRIEGPLLVDIILFMVL
In the case of B1, the “hydrolysis of oxidized insulin B chain, 2 to 16 hr at 37 C, MALDI-TOF of the cleavage products (FIG. 6)” value [1] is reported as “hydrolysis occurred after leucine, cysteine, proline, and lysine amino acid residues”, the Relative Activity (release of p-NA at 410 nm, 0.3 mM substrate) (% of the activity with N-Suc-AAPL-pNA) [2] is reported as 3 and the Relative Activity (release of p-NA at 410 nm, 0.3 mM substrate) (% of the activity with N-Suc-AAPL-pNA) [3] is reported as 70. It also gave a Relative Activity (release of p-NA at 410 nm, 0.3 mM substrate) (% of the activity with N-Suc-AAPL-pNA) [4] of 2, a Relative Activity (release of p-NA at 410 nm, 0.3 mM substrate) (% of the activity with N-Suc-AAPL-pNA) [5] of 8 and a Relative Activity (release of p-NA at 410 nm, 0.3 mM substrate) (% of the activity with N-Suc-AAPL-pNA) [6] of 20. It also gave a Relative Activity (release of p-NA at 410 nm, 0.3 mM substrate) (% of the activity with N-Suc-AAPL-pNA) [7] of 1, a Relative Activity (release of p-NA at 410 nm, 0.3 mM substrate) (% of the activity with N-Suc-AAPL-pNA) [8] of 1 and a Relative Activity (release of p-NA at 410 nm, 0.3 mM substrate) (% of the activity with N-Suc-AAPL-pNA) [9] of 2. The “in vitro cleavage of purified hGH at a 1:50 protease:substrate ratio, 10-30 min at 30 C, SDS-PAGE and Western blot (FIGS. 7 and 8)” value [10] was “Two prominent immunoreactive degradation products were detected”, the Relative Activity (release of p-NA at 410 nm, 0.3 mM substrate) (% of the activity with N-Suc-AAPL-pNA) [11] was 0 and the Relative Activity (release of p-NA at 410 nm, 0.3 mM substrate) (% of the activity with N-Suc-AAPL-pNA) [12] was 18. For the same protein, the Relative Activity (release of p-NA at 410 nm, 0.3 mM substrate) (% of the activity with N-Suc-AAPL-pNA) [13] was 16, the Relative Activity (release of p-NA at 410 nm, 0.3 mM substrate) (% of the activity with N-Suc-AAPL-pNA) [14] was 100 and the Relative Activity (release of p-NA at 410 nm, 0.3 mM substrate) (% of the activity with N-Suc-AAPL-pNA) [15] was 5. It also gave a Relative Activity (release of p-NA at 410 nm, 0.3 mM substrate) (% of the activity with N-Suc-AAPL-pNA) [16] of 24, a Relative Activity (release of p-NA at 410 nm, 0.3 mM substrate) (% of the activity with N-Suc-AAPL-pNA) [17] of 3 and a Relative Activity (release of p-NA at 410 nm, 0.3 mM substrate) (% of the activity with N-Suc-AAPL-pNA) [18] of 1. It also gave a Relative Activity (release of p-NA at 410 nm, 0.3 mM substrate) (% of the activity with N-Suc-AAPL-pNA) [19] of 8, a Relative Activity (release of p-NA at 410 nm, 0.3 mM substrate) (% of the activity with N-Suc-AAPL-pNA) [20] of 100 and a Relative Activity (release of p-NA at 410 nm, 0.3 mM substrate) (% of the activity with N-Suc-AAPL-pNA) [21] of 1. It also gave a Relative Activity (release of p-NA at 410 nm, 0.3 mM substrate) (% of the activity with N-Suc-AAPL-pNA) [22] of 67 and a Relative Activity (release of p-NA at 410 nm, 0.3 mM substrate) (% of the activity with N-Suc-AAPL-pNA) [23] of 1.
